Earlier results, collected in article PMC10466379.

Legend:
Assay in all cases: not stated (values taken from the PKAD database; the article says PKAD values come mainly from NMR or IR titrations)
Conditions in all cases: not stated (the curated set excludes proteins with ligands, nucleic acids and structural metal ions)
Glu91 = Glu91 (UniProt position 173, GRGLAEIYADG)
Glu72 = Glu72 (UniProt position 154, ENAKKEEVEFD)
Glu25 = Glu25 (UniProt position 107, GDTVKEMYKGQ)
Glu23 = Glu23 (UniProt position 105, IDGDTEKLMYK)
Glu37 = Glu37 (UniProt position 119, MTFRLELVDTP)
Glu100 = Glu100 (UniProt position 182, DGKMVEEALVR)
Glu41 = Glu41 (UniProt position 123, LLLVDEPETKH)
Glu20 = Glu20 (UniProt position 102, IKAIDEDTVKL)
Glu34 = Glu34 (UniProt position 116, GQPMTERLLLV)
Glu90 = Glu90 (UniProt position 172, YGRGLEYIYAD)
Glu62 = Glu62 (UniProt position 144, EASAFEKKMVE)
Glu118 = Glu118 (UniProt position 200, YVYKPENTHEQ)
Glu38 = Glu38 (UniProt position 120, TFRLLEVDTPE)
Glu132 = Glu132 (UniProt position 214, KSEAQEKKEKL)

Substance: staphylococcal nuclease variant Y91E (parent PDB 2LKV) (Staphylococcus aureus (inferred from PDB 2LKV; not stated in the article); Y91E)
- pKa (Glu91): 7.1

Substance: staphylococcal nuclease variant I72E (parent PDB 2LKV) (Staphylococcus aureus (inferred from PDB 2LKV; not stated in the article); I72E)
- pKa (Glu72): 7.3

Substance: staphylococcal nuclease variant L25E (parent PDB 2LKV) (Staphylococcus aureus (inferred from PDB 2LKV; not stated in the article); L25E)
- pKa (Glu25): 7.5

Substance: staphylococcal nuclease variant V23E (parent PDB 2LKV) (Staphylococcus aureus (inferred from PDB 2LKV; not stated in the article); V23E)
- pKa (Glu23): 7.1

Substance: staphylococcal nuclease variant L37E (parent PDB 2LKV) (Staphylococcus aureus (inferred from PDB 2LKV; not stated in the article); L37E)
- pKa (Glu37): 5.2

Substance: staphylococcal nuclease variant N100E (parent PDB 2LKV) (Staphylococcus aureus (inferred from PDB 2LKV; not stated in the article); N100E)
- pKa (Glu100): 7.6

Substance: staphylococcal nuclease variant T41E (parent PDB 2LKV) (Staphylococcus aureus (inferred from PDB 2LKV; not stated in the article); T41E)
- pKa (Glu41): 6.8

Substance: staphylococcal nuclease variant G20E (parent PDB 2LKV) (Staphylococcus aureus (inferred from PDB 2LKV; not stated in the article); G20E)
- pKa (Glu20): 4.5

Substance: staphylococcal nuclease variant F34E (parent PDB 2LKV) (Staphylococcus aureus (inferred from PDB 2LKV; not stated in the article); F34E)
- pKa (Glu34): 7.3

Substance: staphylococcal nuclease variant A90E (parent PDB 2LKV) (Staphylococcus aureus (inferred from PDB 2LKV; not stated in the article); A90E)
- pKa (Glu90): 6.4

Substance: staphylococcal nuclease variant T62E (parent PDB 2LKV) (Staphylococcus aureus (inferred from PDB 2LKV; not stated in the article); T62E)
- pKa (Glu62): 7.7

Substance: staphylococcal nuclease variant N118E (parent PDB 2LKV) (Staphylococcus aureus (inferred from PDB 2LKV; not stated in the article); N118E)
- pKa (Glu118): 4.5

Substance: staphylococcal nuclease variant L38E (parent PDB 2LKV) (Staphylococcus aureus (inferred from PDB 2LKV; not stated in the article); L38E)
- pKa (Glu38): 6.8

Substance: staphylococcal nuclease variant A132E (parent PDB 2LKV) (Staphylococcus aureus (inferred from PDB 2LKV; not stated in the article); A132E)
- pKa (Glu132): 7
